Experiments:
[1] = molecular target: TGIF1-HD (160-250) (Homo sapiens, UniProt Q15583 160-250); experiment: ITC
[2] = molecular target: TGIF1-HD (171-250) (Homo sapiens, UniProt Q15583 171-250); experiment: ITC
[3] = molecular target: TGIF1-HD R167A/R168A (Homo sapiens, UniProt Q15583 161-250, R167A;R168A); experiment: X-ray 3.25 A
Sequence of TGIF1-HD R167A/R168A (Q15583 161-250 R167A/R168A): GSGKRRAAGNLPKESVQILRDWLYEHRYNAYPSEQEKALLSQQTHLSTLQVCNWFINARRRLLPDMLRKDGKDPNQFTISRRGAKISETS

Sequence of TGIF1-HD (171-250) (Q15583 171-250): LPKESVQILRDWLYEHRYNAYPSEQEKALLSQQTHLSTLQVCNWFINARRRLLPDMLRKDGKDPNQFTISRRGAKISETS
Sequence of TGIF1-HD (160-250) (Q15583 160-250): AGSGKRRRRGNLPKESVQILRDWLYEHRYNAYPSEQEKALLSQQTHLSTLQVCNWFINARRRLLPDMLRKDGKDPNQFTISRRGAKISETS

B1: canonical TGACA palindrome 16mer (dsDNA)
DNA 1: ATTGACAGCTGTCAAT
DNA 2: ATTGACAGCTGTCAAT
Kd [1]: 170 ± 20 nM
Kd [2]: 728.1 ± 3 nM
binding result [3]: binds

Reference: paper PMC6158717
